Experiment in all cases: purified protein
Type in all cases: biochemical, Psychrobacter sp. SC65A.3

Substrate in data set [1]: CCCCCCCCCCCCCCCCCC(=O)Oc1ccc([N+](=O)[O-])cc1
The following applies: 25 °C.

Substrate in data set [2]: CCCCCCCCCCCCCCCC(=O)Oc1ccc([N+](=O)[O-])cc1
The note with it: 25 °C, 50 mM Tris HCl pH 7.2.

Substrate in data set [3]: CCCC(=O)Oc1ccc([N+](=O)[O-])cc1
The following applies: 25 °C, 50 mM Tris HCl pH 7.2, substrate in ethanol.

B1: PSL2 (Psychrobacter sp. SC65A.3) (protein)
chain: MSNSTVLSVNTLLNKAVKTLNLMSFGQDKNPKSTDINLSDEIIDIEESALQDSREDKGLSIKEKILEHHLMTNYQPHLLHYAIKSFGCLPTPILESLIKCLDGPTSKQYLHVDAHLRLILAVNSKLKTPLQLIEMSELRKRFATDAVAMQAPKVWQQASDNLLSNLKQFHKKGDSAISWQDRTITNADDGDMTIRCYQNETSDNGFGFKKEQTSNPDETVLLFFHGGGFCIGDLNTHHEFCHAICEQTGWPVISVDYRLAPEHPAPAAVRDCISAYAWLAEHCEEFGALPSRIVLAGDSAGGGLSTLMAQQIITPNKEAWLDLGDEGQKTFDILQGLPHPMAQMPLYPVTDIETDYPSWELYGEGLLLDHADVAIFDAACLENSPLPRQHILTSPMLGDNRQVCPSYVVAAELDVLRDEAFAYANQLKSFGIAVQTHTVLGAPHGFIHFMSVHQRLGQETQHIITGFANFVREIIKTRALLSA
As for B1, the Km in the data set “purified protein [1]” (50 mM Tris HCl pH 7.2) is listed as 3.70 mM; in the data set “purified protein [2]” it was 4.30 mM; in “purified protein [3]”, 2.38 mM. Besides, the kcat/Km in “purified protein [1]” (50 mM Tris HCl pH 7.2, text b41 swaps the kcat of butyrate and stearate, table value taken (fits kcat/Km)) was determined as 13.9 M⁻¹ s⁻¹; in “purified protein [2]”, 5.75 M⁻¹ s⁻¹; in “purified protein [3]” (text b41 swaps the kcat of butyrate and stearate, table value taken (fits kcat/Km)), 25 M⁻¹ s⁻¹.

The Km is the concentration of substrate that gives half-maximal velocity. The term kcat/Km denotes the turnover number divided by the Michaelis constant.

Values taken from publication PMC11547725, “Cold-Active Lipase from the Ice Cave Psychrobacter SC65A.3 Strain, a Promising Biocatalyst for Silybin Acylation” (Molecules, 2024).
